Measured values taken from article PMC4807065.

Molecular target: large catalase (CAT) from Aspergillus terreus MTCC 6324 (Aspergillus terreus MTCC 6324)
Experiment: SEC; HiPrep Sephacryl S-300 HR column, 50 mM sodium phosphate buffer pH 7.5; native mass against gel filtration standards (29-669 kDa), compared with the subunit mass from SDS-PAGE

## large catalase (CAT) from Aspergillus terreus MTCC 6324 (enzyme)
  stoichiometry N: 4
